Earlier results on one substance are cited in paper PMC4244080.

The data set concerns the target insulin receptor (Homo sapiens) (UniProt P06213). In words: radioligand binding.
Chain of UniProt P06213 (P06213 763-1382): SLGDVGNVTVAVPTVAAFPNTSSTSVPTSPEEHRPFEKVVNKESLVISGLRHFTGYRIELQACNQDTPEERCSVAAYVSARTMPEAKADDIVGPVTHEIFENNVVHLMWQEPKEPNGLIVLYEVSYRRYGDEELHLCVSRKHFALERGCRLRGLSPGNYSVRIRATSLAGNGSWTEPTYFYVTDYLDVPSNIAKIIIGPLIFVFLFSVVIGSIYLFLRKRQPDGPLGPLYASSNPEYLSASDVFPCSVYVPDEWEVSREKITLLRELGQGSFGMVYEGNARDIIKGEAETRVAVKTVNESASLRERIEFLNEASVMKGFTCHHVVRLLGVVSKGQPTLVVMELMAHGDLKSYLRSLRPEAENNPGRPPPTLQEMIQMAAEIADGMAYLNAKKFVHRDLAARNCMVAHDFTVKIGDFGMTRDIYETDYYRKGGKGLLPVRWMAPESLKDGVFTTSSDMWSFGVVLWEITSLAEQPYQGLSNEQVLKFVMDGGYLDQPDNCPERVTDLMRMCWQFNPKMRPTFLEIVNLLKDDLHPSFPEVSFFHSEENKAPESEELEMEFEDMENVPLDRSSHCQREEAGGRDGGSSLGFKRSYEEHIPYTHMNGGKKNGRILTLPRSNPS

Chain of insulin (P01308 90-110): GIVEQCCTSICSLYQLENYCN

Broadly, the Kd is the equilibrium constant for the complex coming apart. As for insulin (from UniProt P01308), the Kd is 0.3 nM.
